± gives the uncertainty stated by the source.
Test: self-splicing fitness, log relative to wild type (ln ratio); higher = more splicing; Tetrahymena group I intron in knt gene, E. coli kanamycin selection, DiMSum; sequences stand for … in CUCUCU…GGAGGGAAAAGUUAUCAGGCAUGCACCUGGUAGCUAGUCUUUAAACCAAUAGAUUGCAUCGGUUUAAAAGGCAAGACCGUCAAAUUGCGGGAAAGGGGUCAACAGCCGUUCAGUACCAAGUCUCAGGGGAAACUUUGAGAUGGCCUUGCAAAGGGUAUGGUAAUAAGCUGACGGACAUGGUCCUAACCACGCAGCCAAGUCCUAAGUCAACAGAUCUUCUGUUGAUAUGGAUGCAGUUCACAGACUAAAUGUCGGUCGGGGAAGAUGUAUUCUUCUCAUAAGAUAUAGUCGGACCUCUCCUUAAUGGGAGCUAGCGGAUGAAGUGAUGCAACACUGGAGCCGCUGGGAACUAAUUUGUAUGCGAAAGUAUAUUGAUUAGUUUUGGAGUACUCGUGGUCG
How it was run: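 A randomised library covering all eight P1ex-region intron nucleotides was built with the intron in the knt kanamycin-resistance gene on pET-22b(+) and held in E. coli BL21(DE3). Cells were grown overnight at 37°C or 30°C on LB agar, with or without 25 μg/mL kanamycin, plus 100 μg/mL carbenicillin, 50 μM IPTG and 0.2% rhamnose, and pooled colonies were amplicon-sequenced on an Illumina HiSeq 2500. DiMSum fitness is the error-weighted combination of wild-type-normalised replicate fold changes, kanamycin versus none.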

Row | Sequence | self-splicing fitness (ln) (30 °C) | self-splicing fitness (ln) (37 °C)
1 | CGCGAGCAAUAUUACGGGUU | -3.62 ± 0.2 | -2.44 ± 0.2
2 | CGCGAGCAAUAUUACGGUAU | -3.65 ± 0.34 | -2.81 ± 0.34
3 | CGCGAGCAAUAUUACGUCAU | -2.66 ± 0.23 | -1.97 ± 0.33
4 | CGCGAGCAAUAUUACGUUCU | -3.71 ± 0.28 | -2.76 ± 0.38
5 | CGCUAGCAAUAUUACGAAGC | -1.15 ± 0.37 | –
6 | CGCUAGCAAUAUUACGACCU | -1.72 ± 0.19 | -1.62 ± 0.18
7 | CGCUAGCAAUAUUACGACGC | – | -1.92 ± 0.17
8 | CGCUAGCAAUAUUACGAGCA | -0.28 ± 0.098 | 0.344 ± 0.12
9 | CGCUAGCAAUAUUACGAGCU | -0.561 ± 0.11 | -0.7 ± 0.11
10 | CGCUAGCAAUAUUACGAGGC | -3.54 ± 0.2 | -2.95 ± 0.23
11 | CGCUAGCAAUAUUACGAUUA | -3.34 ± 0.35 | -2.73 ± 0.31
12 | CGCUAGCAAUAUUACGCAAG | -3.76 ± 0.32 | -2.49 ± 0.33
13 | CGCUAGCAAUAUUACGCAGA | -3.28 ± 0.45 | -2.38 ± 0.36
14 | CGCUAGCAAUAUUACGCCCA | -0.642 ± 0.11 | -0.0477 ± 0.14
15 | CGCUAGCAAUAUUACGGAAA | -2.34 ± 0.41 | -1.49 ± 0.33
16 | CGCUAGCAAUAUUACGGACG | -2.4 ± 0.17 | -0.45 ± 0.17
17 | CGCUAGCAAUAUUACGGAUU | -3 ± 0.23 | -1.52 ± 0.2
18 | CGCUAGCAAUAUUACGGCAA | -0.889 ± 0.099 | -0.0297 ± 0.11
19 | CGCUAGCAAUAUUACGGCGA | -2.76 ± 0.28 | -2.3 ± 0.24
20 | CGCUAGCAAUAUUACGGCGU | -4.23 ± 0.42 | -2.71 ± 0.21
21 | CGCUAGCAAUAUUACGGGGU | -3.83 ± 0.21 | -3.12 ± 0.21
22 | CGCUAGCAAUAUUACGGGUU | -2.73 ± 0.082 | -2.04 ± 0.11
23 | CGCUAGCAAUAUUACGGUCG | -2.53 ± 0.1 | -2.03 ± 0.13
24 | CGCUAGCAAUAUUACGUAUA | -3.36 ± 0.15 | -2.55 ± 0.16
25 | CGCUAGCAAUAUUACGUCCC | -2.63 ± 0.16 | -1.54 ± 0.19
26 | CGCUAGCAAUAUUACGUGAG | -3.88 ± 0.33 | -1.64 ± 0.14

Row | Sequence | self-splicing fitness (ln) (30 °C) | self-splicing fitness (ln) (37 °C)
27 | CGCUAGCAAUAUUACGUGAU | -2.34 ± 0.12 | -3.44 ± 0.25
28 | CGCUAGCAAUAUUACGUGGA | -3.16 ± 0.2 | -2.33 ± 0.18
29 | CGCUAGCAAUAUUACGUGGC | -2.89 ± 0.2 | -2.72 ± 0.2
30 | CGCUAGCAAUAUUACGUGUG | -4.15 ± 0.27 | -3.12 ± 0.19
31 | CGCUAGCAAUAUUACGUUAG | -3.47 ± 0.18 | -2.89 ± 0.24
32 | CGCUAGCAAUAUUACGUUGA | -3.06 ± 0.17 | -2.38 ± 0.14
33 | CGCUAGCAAUAUUACGUUGC | -3.3 ± 0.33 | -2.98 ± 0.29
34 | CGGAAGCAAUAUUACGACUC | -0.372 ± 0.081 | -1.1 ± 0.08
35 | CGGAAGCAAUAUUACGAGUA | – | -2.86 ± 0.29
36 | CGGAAGCAAUAUUACGAUGC | – | -2.78 ± 0.36
37 | CGGAAGCAAUAUUACGAUUG | -0.86 ± 0.073 | -0.25 ± 0.095
38 | CGGAAGCAAUAUUACGAUUU | -3.62 ± 0.2 | -1.51 ± 0.15
39 | CGGAAGCAAUAUUACGCAAA | – | -2.55 ± 0.33
40 | CGGAAGCAAUAUUACGCAAC | -1.88 ± 0.29 | –
41 | CGGAAGCAAUAUUACGCACG | – | 0.981 ± 0.23
42 | CGGAAGCAAUAUUACGCAGG | -1.73 ± 0.095 | -1.57 ± 0.11
43 | CGGAAGCAAUAUUACGCCAA | -2.25 ± 0.39 | -2.08 ± 0.4
44 | CGGAAGCAAUAUUACGCCAG | -0.858 ± 0.27 | -0.336 ± 0.26
45 | CGGAAGCAAUAUUACGCGAG | -1.19 ± 0.15 | -1.24 ± 0.27
46 | CGGAAGCAAUAUUACGCGCC | – | -0.393 ± 0.27
47 | CGGAAGCAAUAUUACGCGGU | -3.98 ± 0.29 | -2.73 ± 0.22
48 | CGGAAGCAAUAUUACGCGUC | -2.62 ± 0.14 | -3.1 ± 0.37
49 | CGGAAGCAAUAUUACGCGUG | -1.54 ± 0.16 | -0.867 ± 0.17
50 | CGGAAGCAAUAUUACGCGUU | -3.9 ± 0.34 | -2.9 ± 0.33
51 | CGGAAGCAAUAUUACGCUGA | – | -1.21 ± 0.26
